System: Saccharomyces cerevisiae
Experiment: transcriptional activation domain activity (GFP:mCherry ratio, weighted mean of sorted bins, harmonized to initial dataset scale) (arbitrary fluorescence ratio units); higher = stronger transcriptional activation
Conditions: beta-estradiol 1 µM; induction time 4 h
Summary of the method: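 Activation activity, the read-weighted mean of bin median fluorescence averaged across barcodes, was linearly mapped onto the scale of the initial dataset. It was measured for barcoded protein tiles fused to an estradiol-inducible synthetic transcription factor at URA3 in GFP-reporter yeast diploids. Cultures diluted 1:5 into SC with 1 uM beta-estradiol were held 4 hours at 30 °C, sorted into 8 bins by GFP:mCherry ratio, and barcode-sequenced, and tiles under 50 reads were discarded.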

| Sequence | transcriptional activation domain activity |
| --- | --- |
| SPKMYESFLRIDLRNLEVRVLGMGATTSDVRLANIVVQYLVKGWLPQTAYATL | 71200 |
| LLEMGLRWTLDAFGDSARMAGHIFHCLSNLEMTLPSYMYIQLLRSILKLPKTV | 31000 |
| AAFFFALLWVVFRSSWPSPLFFFLFFFVGLVLLAFLAFGFPFARFLLPLGVFF | 26000 |
| HSTLLYCHLLLLPFLSSCWALFFLFPLSFGSLFFLFFFFLFLFGAFSFFLSSL | 39600 |
| LKALQLGCYNYFLLGGSCVSGPVGLLAGIIRQPLVLFYHFFSVALYAIWLRVA | 81200 |
| SGSNINNNDNVKLPSNFKNYYDPPMSSLDISMDVPDIFGSLDFFDYDLLFQND | 179000 |
| EAPEPAADAPPPRRVRMSKPKVKTGCRECKTRRVKCDEARPACTRCTRGRREC | 36800 |
| VLEQLNLINHFYQFSLKFFLDIFEYVLRQNPNLQNVTDHHARREILFNDIFLV | 33600 |
| KEEEQKELDRMAREEKKVWGDALRLGRTSWSESVMVWSHVMALRVFVETVLRY | 62900 |
| IEDSRRVDRGDEDKGREDHTRHRRRGSTDTGRRDERSHRDRRRSRSRSPASRR | 21900 |
| FLRLFCFAFIMLVGILPTQAYVVYADVKLSMPWHAYSWSNMHGPSWHTVNMVP | 51400 |
| MLLTFFFPLYCTSSFRVTQFLYPFQTLLFTFVFQAYLLLFLLFLLLLLLCFSP | 41000 |
| ILLVALPLFSFGFESFLPFGKDSGILYYFWLYSTRVFCPCMGFLWAIFALLPF | 59700 |
| MGGGVYVCRSGAVYLFWVLLFYGLMFLTVDVITYLLAYLTLPMYLFFLLLVSF | 39200 |
| MGGVWGFLWSFFFLFPLFFFSLSKDGLDCFISFILVSFYFFSFLFCIHVFFFS | 15600 |
| DSEEERMRRRRAKSRDPERERERKASRSPEKKPARSKSRLGRLAAGAAAAGAA | 50300 |
| SKKKGRKAQKTGSADPAPNESKDRAGATEEAAEGAADEEDEQDEDEDEDEEGE | 37600 |
| RKGSVAKEMIDGRVGRREKGGQGDNRGRKRTRRGSGERKRSDKKGRREKRNRK | 42300 |
| KFTAFTFLPLTLWHEFSFFFNLYFLVVALSQCIPVLRIGYLSSYIVPLVFVLA | 54900 |
| GETVFYKGQGKKRQEIRAPLRRGMALLHRHGHECLLHEGTQVLKGIKYVLRSD | 54600 |
| WWGDTYFLFFPCLMYKFHVGFCLYMKWEMLYLLLFGRACDVFIMIGVVAVHVL | 62400 |

| Sequence | transcriptional activation domain activity |
| --- | --- |
| QAPQAGRGQGAQGGRTRHQAGGARAEEDEPQGARQEGRGGQGGGEEEARGGEG | 37600 |
| LLFQSGVLRGYGGLLGFWIYLLLSSSFLLHLFYCCYIVLYLFVFVSWLLACLL | 51700 |
| MHSGPSFSCFFSVFPSFIFGLSTSSTLYIYFFFLLLDQLFVPSFFALLLLFLP | 41400 |
| GCVVSCKLVGLFTITLIGVAVLYDLWRIIDIRRGTTMAQFARHFVARALALIA | 21600 |
| GKPAASAFGGGSSAFGAGSGAFGGGGGGGPSAFGAPASKPSAFGTGGAFGGGA | 51100 |
| ILALSWGGGLYPWASYHVLVPLILGFCILVVFALYEIYMPLKYPLIPMSLFLN | 40400 |
| MTFVSEALITHRIDGGDIGVVNIFSKNKWRSKVYVRILVQICMRWVMMAIYLN | 55700 |
| VMLNQQILYFCLRILCMHAYAQFRMEDSDIWRMVEKKKHIYNRLIELVYTLCS | 46300 |
| RPAAVLARQRERERARDARARAVRGAAPVAAAVAVRRVARHVCVACACAAAAA | 60400 |
| TLLIASLLVVLCLLRRFLLSILCNRDFYMIKFYTFFLYQILLCSLLKCLRLLW | 80500 |
| ATAAAAVKSPRSKSKEPKKSLDAAAAVAATSPAPVAAEEPAAAAVVEEPAKPA | 41400 |
| NDREDDGEDEEEDNGGGGRQQRRKKGSAQRAGKLKPATESDEDEDKPEEEADD | 29200 |
| TMSTVMVVGSDDKKVKEVGEALKSKLGVKGGGKGSRWSGKFTGVWKDSREGAL | 27000 |
| TVKEEEEEVKAKPAAAKVSRVRKAAAAKAQSEPEKDVAGPAPKTRAARTRAAS | 48100 |
| LQSPLYGRHILVAQQLVYYGCVILFPWLFISCALMFKFRGSWLLLYGMIDLSL | 44100 |
| GREANDAAQKQRKREGARAARDGNRSAKEGNGRQDAGSRKKAGDGEGGGAERG | 20600 |
| VREWHVDLSFSSFGKTLLRELESLLERVRANWLEEVTVRTIALICSRLLASTI | 60800 |
| MHRPVCSGQSPPFFSPTSPIHFILPFLFSIFSFPHGAGVSMHIGRLVLLFFFF | 59300 |
| EEEEDAETPAQESEEEKAASEPSSPPVVQQIPRKKRLGRPPKNRPPDWNAVEP | 37600 |
| VHNNSNNSNNSNISASDYTVANNSTSNNNNNNNNNNNNNNNIHPNQFTAAANM | 39200 |
| LLILLLAFKKTSKEDPYEAIRLMSLAIGDQYAQGPDRFRLSCQWAVLARMISH | 38400 |

| Sequence | transcriptional activation domain activity |
| --- | --- |
| GQAGAPQRASARGSVQLPAQRGAQDGEPAAARRARSRDHARHKPPRHGEAVHA | 46200 |
| AAASAPAPQNDGFSEVQHSRGGRGRGGHPSGERGGYRGRGRGGPRGDFGGRGR | 49600 |
| RFLLCLLCMELLLHFVYVGAINSSLPVWDSYTPAQLSLLSFQNLIIIWLKLLL | 36800 |
| MDFTLTWVKLHVYFFFLPYPCWKINSLVYPFFFLFFLSFPFSFFFSLFSLFLC | 69100 |
| PELGRIVRWKWFEWTAKALFIQLYSWSLQAFLFSVGWFNRFLVRKDIVLQIIM | 51900 |
| RQNEKTETGKAEARTRRETGARKEHAKSGDRNAKENRNGERKQREHEKDKDGG | 26000 |
| FYGDISLSRRGFLIASMFILRLFRAISYLAFNAILVDMPTRQAILRFFHYFGR | 50200 |
| CGSQSPALLYPYYQIDTIVPCIRDLESYYKSAGFPTTTLIWPLFLHLMILFVV | 75400 |
| FISKLCILGGSQICNHFWGGIEIILESFYFILTTLINFWDFINLPNAFLWGLF | 72800 |
| SVSRLHAKIEYEEENERFVLVVLGRNGAWVDGIWSGSGSRVPLGPRSQIQIAT | 31600 |
| MSIVPVNSTYTLCILLMFVMLETTLYDPPLCGCMARLVTMFYGFFYGFFIYLI | 61000 |
| TGGLAELQDTLDDARASFAYVRVKYSNDKESQREKFILIVWIGKSVKVMRRAK | 33600 |
| MRFLFFLLLFLFFFPPPLPPISSLQGCFFVIFFFGFFIFSSFLLFYAVFFFIV | 39000 |
| LSIWVKYLGCIVRWRKVRIFGESILPIQLLVVVVLLTLRPCSICAPLKVLPYK | 66000 |
| TLKALCRFITWLSIEHIMGANLIYKLKAWLKMYRNLVIQCYIEIANLDIPTSV | 56900 |
| YALIHFFRLYRSGHGPIRMFFLHIQALYNLFNLVFSWFALANLWLAFSIIIRL | 75800 |
| FGSDYTRFYMYMPHPSILPYILGDLFWTFWRGFIDMEMTSKTYLYLFFLLLPP | 72300 |
| RASAAVPRRRDSTDSSDSEGDIRAAMAAARRKQAKVPAPRPVVENRPAPANTP | 36300 |
| MILMLLLLLLLLLLLLVMVLLLLLVMVLLVVLLVLLWVLLLMLLWVLLGVLLG | 16200 |
| PFLFKITVLYVLEVIDGILDVSRFFPAVQLELCCLMFLWCCCGMVLLWFCLTR | 58800 |
| RDRGDSHRRHHHRSGSDDERRHRSDRRAREKDGDRSRSHRSSRHADEREERDE | 17600 |

| Sequence | transcriptional activation domain activity |
| --- | --- |
| MASPASSTEQQRAAKRKSHRKSRNGCFQCKQRHSKVSQSSTLLAAAASNLSRT | 27100 |
| MVLLDVGWLCISRFILLDSMLLFFTFLTVFCLTKFHNQQYQSFSVDWWVWLFL | 67700 |
| YCAINCGGIDGLSLFMKIQWIANLDYLDIELLFGGIYYYFVCLLLVLLLLLWL | 42700 |
| NLCLLIAASLISIISLVNLLDFFLTWFGQFITIENLTLELILGYILYPYAWLL | 40000 |
| FPPPFPPPFPPPFLSSFPPPVPLPLTFPLPPFPFQFPFPFPHPLTFPLPFPFP | 17600 |
| FYSRVASSTLLFFWLTSLISNGIIIRTNYLLDQHHSRLLLFALLVVQELLCVL | 68600 |
| RLHTLRMPISWPLLGLARRRLASLRTFAVWIKPRHSSLTAAERLAFTQFLAAH | 79000 |
| RYLLLSIRDWPCIYIHDLFVFIVSLITDVPDDFLILNFQDLLFFFFVFVFLIF | 66200 |
| MDDALSVKSNDDGTYDVAVHIADVSYFVKPNTALDRDARKRATSVYLIQRAVP | 15900 |
| LFHSVVSIYRLLFFFSVDHSAGVRFFFCFLFLPSLIFCIAFPISIISGFLVFF | 49600 |
| CPACLSVCTYYLRCLLCSAALYTMGLLAFWWRFLFWHDCILLWSLSLFPFTLS | 87400 |
| PKRRLGVAVTWTGLTLLLLLLLLLLPSLIILPSFAACFWYIYWGILRISFFFY | 26100 |
| WRLYMAFRTLKGKLLPCLIEANGLDLFISTFAAIVERVAEVSNLRLTSKLYQA | 44900 |
| ETSDEAKSEDSSSDEGDDSSSSEDDGRKRSRKKSVIKMRKTKAKKTKKKGKKS | 39300 |
| MPLPPLSLSLLVLHSRHSQHSFSLHTYTLTFLFYFPYLLIDLDYLAFFFIFFP | 41400 |
| LFGLFGPLDLWTFWTFGLFGLFGLFGLFGLFGLGLFGLLDFLDFWPWTFWPWI | 57700 |
| DQVMKIKPVQKQTTAGQRTRFKAVVVVGDSNGHVGLGVKTAKEVATAIRAAII | 72700 |
| PESINYVLEQGSLLSRFTYRFVIFICKLARINQPTYRLLIRFGLLDMILRICV | 87400 |
| KDGKNEVIVDMQRVRERKREIVNSFRGGSEKRVADAGVTVLMGSASFVDSKTV | 34900 |
| VRLVDIFLLKKYYLINLSLAYLSILLFPPPSPRPLYHLFSIYFFFFLFSSASP | 45400 |

Source: the supplement of paper PMC12636428
